Reference: article PMC6363454 (The Journal of Cell Biology, 2019)
Read-outs that look alike come from different tables or passages of the source.

Columns and labels:
cryo-EM structure [1] = molecular target: the molecule itself; assay: cryo-EM structure
cryo-EM structure [2] = molecular target: the molecule itself; assay: cryo-EM structure; remark: listed apart in the source

Row | Protein | stoichiometry N (cryo-EM structure [1]) | stoichiometry N (cryo-EM structure [2])
1 | Dam1C/DASH heterodecamer (recombinant) (complex, S. cerevisiae) chain 1: MSEDKAKLGTTRSATEYRLSIGSAPTSRRSSMGESSSLMKFADQEGLTSSVGEYNENTIQQLLLPKIRELSDSIITLDSNFTRLNFIHESLADLNESLGSLLYGIMSNSWCVEFSQAPHDIQDDLIAIKQLKSLEDEKNNLVMELSNMERGIKRKKDEQGENDLAKASQNKQFNQPLFPSSQVRKYRSYDNRDKRKPSKIGNNLQVENEEDYEDDTSSEASFVLNPTNIGMSKSSQGHVTKTTRLNNNTNSKLRRKSILHTIRNSIASGADLPIENDNVVNLGDLHPNNRISLGSGAARVVNGPVTKNRNSMFSGRAERKPTESRHSVAKKTEKKINTRPPFR chain 2: MMASTSNDEEKLISTTDKYFIEQRNIVLQEINETMNSILNGLNGLNISLESSIAVGREFQSVSDLWKTLYDGLESLSDEAPIDEQPTLSQSKTK chain 3: MDSIDEQIAIKRKELQSLQKITSLTDGLKIQLTELNEQIKEMGMNADSVAQLMNNWDSIINNISQASLGLLQYAEGDYEIGPWKDSKKKESEQSNETGLEAQENDKNDEDNDEDEDLVPLPETMVRIRVDGNE chain 4: MEHNLSPLQQEVLDKYKQLSLDLKALDETIKELNYSQHRQQHSQQETVSPDEILQEMRDIEVKIGLVGTLLKGSVYSLILQRKQEQESLGSNSK chain 5: MENPHEQVQANILSRIIGNVKRLNESVAILNQELVTINNRNKNLEIMGAICDNYHSSVQFNLEATNNKKPPL chain 6: MSEQSQLDDSTIDKLIPQIFNEMRSNLNNTTNKFPKSTGGGASDNISANSNSIRSFNSITTQSLLKESESLDKITAMIKNVTAALKNNLPVYVNQVHEVCKSTNSILDSWINIHSQAGYIHKLMSDQTYLKLINDRLHNENVNTNDEDGSTLHNVIALKKKEILDLRQKLENRKGEKDAAPAKPPNQGLNPRYGVQSGRRPVPSAGISNNGRVRKTHVPASKRPSGIPRVTNRWTKPTASSSRKMFR chain 7: MDSASKEETLEKLDQEITVNLQKIDSNLSFCFHKITQDIIPHVATYSEICERIMDSTEWLGTMFQETGLVNLQANAAAPVGNAPVKSLVSNNVGIFPTSAEEASRQSQTDNGPNEADSAVHVNRDVHSMFNNDSIDDFHTANITSTGQILKLPDSSDEDTGSEAVPSREQTDLTGEGHGGADDEQDESTIQRQSRKRKISLLLQQQYGSSSSMVPSPIVPNKMRKQLAHEEHINNDGDNDDENSNNIESSPLKQGHHHPKGQADDNNEGPDEEESTKEVPKPGTIIHFSTNR chain 8: MTDALEQSVLALEGTVSVLKDSVESLKCANEPSTNLASTMLQTKRVFRLVPEYDVERSKLDLIEEVEPLVRTLGDKLRKSMGRMQRELDTLQQTYELNDLRLKKNISMDDDDALNSPDMGQEYEGRDADDVVMMASSTNEELEELKKLKEKKKQLENKLEILKQK chain 9: MGESLDRCIDDINRAVDSMSTLYFKPPGIFHNAILQGASNKASIRKDITRLIKDCNHDEAYLLFKVNPEKQSVSRRDGKEGVFDYVIKRDTDMKRNRRLGRPGEKPIIHVPKEVYLNKDRLDLNNKRRRTATTSGGGLNGFIFDTDLIGSSVISNSSSGTFKALSAVFKDDPQIQRLLYALENGSVLMEEESNNQRRKTIFVEDFPTDLILKVMAEVTDLWPLTEFKQDYDQLYHNYEQLSSKLRFIKKEVLLQDDRLKTMSQYHPSSSHDVAKIIRKEKDEIRRLEMEIANLQE chain 10: MNANKQRQYNQLAHELRELQTNLQETTKQLDIMSKQCNENLVGQLGKVHGSWLIGSYIYYMEQMLGKTQ | 17 | –
2 | Dam1C/DASH outer kinetochore complex in yeast cells (in vivo) (complex) chain 1: MSEDKAKLGTTRSATEYRLSIGSAPTSRRSSMGESSSLMKFADQEGLTSSVGEYNENTIQQLLLPKIRELSDSIITLDSNFTRLNFIHESLADLNESLGSLLYGIMSNSWCVEFSQAPHDIQDDLIAIKQLKSLEDEKNNLVMELSNMERGIKRKKDEQGENDLAKASQNKQFNQPLFPSSQVRKYRSYDNRDKRKPSKIGNNLQVENEEDYEDDTSSEASFVLNPTNIGMSKSSQGHVTKTTRLNNNTNSKLRRKSILHTIRNSIASGADLPIENDNVVNLGDLHPNNRISLGSGAARVVNGPVTKNRNSMFSGRAERKPTESRHSVAKKTEKKINTRPPFR chain 2: MMASTSNDEEKLISTTDKYFIEQRNIVLQEINETMNSILNGLNGLNISLESSIAVGREFQSVSDLWKTLYDGLESLSDEAPIDEQPTLSQSKTK chain 3: MDSIDEQIAIKRKELQSLQKITSLTDGLKIQLTELNEQIKEMGMNADSVAQLMNNWDSIINNISQASLGLLQYAEGDYEIGPWKDSKKKESEQSNETGLEAQENDKNDEDNDEDEDLVPLPETMVRIRVDGNE chain 4: MEHNLSPLQQEVLDKYKQLSLDLKALDETIKELNYSQHRQQHSQQETVSPDEILQEMRDIEVKIGLVGTLLKGSVYSLILQRKQEQESLGSNSK chain 5: MENPHEQVQANILSRIIGNVKRLNESVAILNQELVTINNRNKNLEIMGAICDNYHSSVQFNLEATNNKKPPL chain 6: MSEQSQLDDSTIDKLIPQIFNEMRSNLNNTTNKFPKSTGGGASDNISANSNSIRSFNSITTQSLLKESESLDKITAMIKNVTAALKNNLPVYVNQVHEVCKSTNSILDSWINIHSQAGYIHKLMSDQTYLKLINDRLHNENVNTNDEDGSTLHNVIALKKKEILDLRQKLENRKGEKDAAPAKPPNQGLNPRYGVQSGRRPVPSAGISNNGRVRKTHVPASKRPSGIPRVTNRWTKPTASSSRKMFR chain 7: MDSASKEETLEKLDQEITVNLQKIDSNLSFCFHKITQDIIPHVATYSEICERIMDSTEWLGTMFQETGLVNLQANAAAPVGNAPVKSLVSNNVGIFPTSAEEASRQSQTDNGPNEADSAVHVNRDVHSMFNNDSIDDFHTANITSTGQILKLPDSSDEDTGSEAVPSREQTDLTGEGHGGADDEQDESTIQRQSRKRKISLLLQQQYGSSSSMVPSPIVPNKMRKQLAHEEHINNDGDNDDENSNNIESSPLKQGHHHPKGQADDNNEGPDEEESTKEVPKPGTIIHFSTNR chain 8: MTDALEQSVLALEGTVSVLKDSVESLKCANEPSTNLASTMLQTKRVFRLVPEYDVERSKLDLIEEVEPLVRTLGDKLRKSMGRMQRELDTLQQTYELNDLRLKKNISMDDDDALNSPDMGQEYEGRDADDVVMMASSTNEELEELKKLKEKKKQLENKLEILKQK chain 9: MGESLDRCIDDINRAVDSMSTLYFKPPGIFHNAILQGASNKASIRKDITRLIKDCNHDEAYLLFKVNPEKQSVSRRDGKEGVFDYVIKRDTDMKRNRRLGRPGEKPIIHVPKEVYLNKDRLDLNNKRRRTATTSGGGLNGFIFDTDLIGSSVISNSSSGTFKALSAVFKDDPQIQRLLYALENGSVLMEEESNNQRRKTIFVEDFPTDLILKVMAEVTDLWPLTEFKQDYDQLYHNYEQLSSKLRFIKKEVLLQDDRLKTMSQYHPSSSHDVAKIIRKEKDEIRRLEMEIANLQE chain 10: MNANKQRQYNQLAHELRELQTNLQETTKQLDIMSKQCNENLVGQLGKVHGSWLIGSYIYYMEQMLGKTQ | – | 17
